{"source": "paper PMC8287685", "about": "“Archaeal Orc1 protein interacts with T-rich single-stranded DNA”", "key": {"[1]": {"target": "T1, SSB (Escherichia coli, UniProt P0AGE0 1-178)", "T1 sequence (P0AGE0 whole entry, the tested form may be a part)": "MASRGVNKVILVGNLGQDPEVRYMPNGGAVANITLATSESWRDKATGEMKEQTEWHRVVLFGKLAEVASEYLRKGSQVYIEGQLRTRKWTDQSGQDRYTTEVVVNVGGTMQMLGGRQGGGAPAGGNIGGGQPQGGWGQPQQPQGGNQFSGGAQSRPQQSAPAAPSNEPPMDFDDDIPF", "test": "SPR; no significant difference from R bottom; SPR: HBS-EP + 10 mM MgCl2, 2 mM ATP; BLI (room temperature) and MST: EDBS (25 mM Tris-HCl pH 8, 4% sucrose, 4 mM DTT, 80 ug/mL BSA, 10 mM Mg(OAc)2, 2 mM [truncated]); EMSA: 40 mM HEPES-KOH pH 8, 25 mM [truncated], 5% PAGE in TBE", "conditions": "chain copies: 4; label: 5' biotin (BLI, SPR); fluorescent (MST)"}, "[2]": {"target": "T2, ApOrc1 (Orc1-1) (Aeropyrum pernix, UniProt Q9YEV6 1-395)", "T2 sequence": "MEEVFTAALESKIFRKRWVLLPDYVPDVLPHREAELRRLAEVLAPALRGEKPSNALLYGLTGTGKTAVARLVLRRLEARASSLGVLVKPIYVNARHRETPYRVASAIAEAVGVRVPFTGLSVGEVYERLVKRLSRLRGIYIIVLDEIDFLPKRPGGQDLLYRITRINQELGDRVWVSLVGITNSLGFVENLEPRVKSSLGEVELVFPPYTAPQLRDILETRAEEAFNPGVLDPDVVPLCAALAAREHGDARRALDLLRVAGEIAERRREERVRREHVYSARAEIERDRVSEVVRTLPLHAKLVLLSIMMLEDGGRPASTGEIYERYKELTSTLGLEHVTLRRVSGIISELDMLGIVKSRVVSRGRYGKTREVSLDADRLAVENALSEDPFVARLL", "test": "SPR; ATP, Mg2+; SPR: HBS-EP + 10 mM MgCl2, 2 mM ATP; BLI (room temperature) and MST: EDBS (25 mM Tris-HCl pH 8, 4% sucrose, 4 mM DTT, 80 ug/mL BSA, 10 mM Mg(OAc)2, 2 mM [truncated]); EMSA: 40 mM HEPES-KOH pH 8, 25 mM [truncated], 5% PAGE in TBE", "conditions": "protein: recombinant; label: 5' biotin (BLI, SPR); fluorescent (MST)"}, "[3]": {"target": "T2, ApOrc1 (Orc1-1)", "test": "SPR; SPR: HBS-EP + 10 mM MgCl2, 2 mM ATP; BLI (room temperature) and MST: EDBS (25 mM Tris-HCl pH 8, 4% sucrose, 4 mM DTT, 80 ug/mL BSA, 10 mM Mg(OAc)2, 2 mM [truncated]); EMSA: 40 mM HEPES-KOH pH 8, 25 mM [truncated], 5% PAGE in TBE", "conditions": "protein: recombinant; label: Biotin-14-dCTP by TdT"}, "[4]": {"target": "T2, ApOrc1 (Orc1-1)", "test": "SPR; ATP, Mg2+; SPR: HBS-EP + 10 mM MgCl2, 2 mM ATP; BLI (room temperature) and MST: EDBS (25 mM Tris-HCl pH 8, 4% sucrose, 4 mM DTT, 80 ug/mL BSA, 10 mM Mg(OAc)2, 2 mM [truncated]); EMSA: 40 mM HEPES-KOH pH 8, 25 mM [truncated], 5% PAGE in TBE", "conditions": "protein: recombinant; label: 5' biotin (BLI, SPR); fluorescent (MST)", "remark": "listed apart in the source"}, "[5]": {"target": "T1, SSB", "test": "SPR; no significant difference from R top; SPR: HBS-EP + 10 mM MgCl2, 2 mM ATP; BLI (room temperature) and MST: EDBS (25 mM Tris-HCl pH 8, 4% sucrose, 4 mM DTT, 80 ug/mL BSA, 10 mM Mg(OAc)2, 2 mM [truncated]); EMSA: 40 mM HEPES-KOH pH 8, 25 mM [truncated], 5% PAGE in TBE", "conditions": "chain copies: 4; label: 5' biotin (BLI, SPR); fluorescent (MST)"}, "[6]": {"target": "T2, ApOrc1 (Orc1-1)", "test": "BLI; among the highest; SPR: HBS-EP + 10 mM MgCl2, 2 mM ATP; BLI (room temperature) and MST: EDBS (25 mM Tris-HCl pH 8, 4% sucrose, 4 mM DTT, 80 ug/mL BSA, 10 mM Mg(OAc)2, 2 mM [truncated]); EMSA: 40 mM HEPES-KOH pH 8, 25 mM [truncated], 5% PAGE in TBE", "conditions": "protein: recombinant; label: 5' biotin"}, "[7]": {"target": "T2, ApOrc1 (Orc1-1)", "test": "MST; SPR: HBS-EP + 10 mM MgCl2, 2 mM ATP; BLI (room temperature) and MST: EDBS (25 mM Tris-HCl pH 8, 4% sucrose, 4 mM DTT, 80 ug/mL BSA, 10 mM Mg(OAc)2, 2 mM [truncated]); EMSA: 40 mM HEPES-KOH pH 8, 25 mM [truncated], 5% PAGE in TBE", "conditions": "protein: recombinant; label: 5' Cy3"}, "[8]": {"target": "T2, ApOrc1 (Orc1-1)", "test": "BLI; higher than L top; SPR: HBS-EP + 10 mM MgCl2, 2 mM ATP; BLI (room temperature) and MST: EDBS (25 mM Tris-HCl pH 8, 4% sucrose, 4 mM DTT, 80 ug/mL BSA, 10 mM Mg(OAc)2, 2 mM [truncated]); EMSA: 40 mM HEPES-KOH pH 8, 25 mM [truncated], 5% PAGE in TBE", "conditions": "protein: recombinant; label: 5' biotin"}, "[9]": {"target": "T2, ApOrc1 (Orc1-1)", "test": "SPR; highest response; SPR: HBS-EP + 10 mM MgCl2, 2 mM ATP; BLI (room temperature) and MST: EDBS (25 mM Tris-HCl pH 8, 4% sucrose, 4 mM DTT, 80 ug/mL BSA, 10 mM Mg(OAc)2, 2 mM [truncated]); EMSA: 40 mM HEPES-KOH pH 8, 25 mM [truncated], 5% PAGE in TBE", "conditions": "protein: recombinant; label: 5' biotin"}}, "data": [{"binder": "R top (ssDNA) DNA: CAAATCAAGCTAGAAACAAACAAAGACACACTATAATCCAGAACTGCACAGCCTGA", "values": [{"measurement": "binding result", "setting": "[1]", "result": "binds"}, {"measurement": "binding signal", "setting": "[2]", "result": "~0.33 fold SPR response vs R bottom (stated as R bottom 3 times higher)"}]}, {"binder": "polyT(60) (ssDNA) DNA: TTTTTTTTTTTTTTTTTTTTTTTTTTTTTTTTTTTTTTTTTTTTTTTTTTTTTTTTTTTT", "values": [{"measurement": "binding result", "setting": "[3]", "result": "binds"}]}, {"binder": "polyA(60) (ssDNA) DNA: AAAAAAAAAAAAAAAAAAAAAAAAAAAAAAAAAAAAAAAAAAAAAAAAAAAAAAAAAAAA", "values": [{"measurement": "binding result", "setting": "[3]", "result": "no binding"}]}, {"binder": "R bottom (ssDNA) DNA: TCAGGCTGTGCAGTTCTGGATTATAGTGTGTCTTTGTTTGTTTCTAGCTTGATTTG", "values": [{"measurement": "binding signal", "setting": "[4]", "result": "~3 fold SPR response vs R top"}, {"measurement": "binding result", "setting": "[5]", "result": "binds"}]}, {"binder": "TTTAAAACTGGGTTTTTGTATCATTATATTGGCAT (ssDNA)", "note": "[L2 bottom]", "values": [{"measurement": "binding result", "setting": "[6]", "result": "binds"}]}, {"binder": "polyA(70) (ssDNA) DNA: AAAAAAAAAAAAAAAAAAAAAAAAAAAAAAAAAAAAAAAAAAAAAAAAAAAAAAAAAAAAAAAAAAAAAA", "values": [{"measurement": "binding result", "setting": "[7]", "result": "no binding"}]}, {"binder": "L bottom (ssDNA) DNA: TTTAAAACTGGGTTTTTGTATCATTATATTGGCATTCTTCAAGAGCACTATTCGGGAGGAGTATACGCTTC", "values": [{"measurement": "binding result", "setting": "[8]", "result": "binds"}]}, {"binder": "TGTGTCTTTGTTTGTTTCTAGCTTGATTTG (ssDNA)", "note": "[R1 bottom]", "values": [{"measurement": "binding result", "setting": "[9]", "result": "binds"}]}, {"binder": "polyT(70) (ssDNA) DNA: TTTTTTTTTTTTTTTTTTTTTTTTTTTTTTTTTTTTTTTTTTTTTTTTTTTTTTTTTTTTTTTTTTTTTT", "values": [{"measurement": "binding result", "setting": "[7]", "result": "binds"}]}]}
